Data: patent US20200199241A1 (Chugai, published 2020)
Numbering of substitutions follows the chain as printed. Names and notes keep the numbering of the source.

T1: human FcγRIIb (human, UniProt P31994 43-217, limits assumed)
T1 construct: also called FcgRIIb
T1 sequence: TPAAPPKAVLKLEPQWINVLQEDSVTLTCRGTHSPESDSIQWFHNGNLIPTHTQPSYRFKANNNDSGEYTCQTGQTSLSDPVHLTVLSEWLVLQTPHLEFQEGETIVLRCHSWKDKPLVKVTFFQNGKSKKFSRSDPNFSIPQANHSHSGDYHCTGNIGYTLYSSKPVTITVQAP

T2: human FcγRIIa(H) (human, UniProt P12318 36-217)
T2 construct: also called FcgRIIaH; FcγRIIa type H
T2 sequence: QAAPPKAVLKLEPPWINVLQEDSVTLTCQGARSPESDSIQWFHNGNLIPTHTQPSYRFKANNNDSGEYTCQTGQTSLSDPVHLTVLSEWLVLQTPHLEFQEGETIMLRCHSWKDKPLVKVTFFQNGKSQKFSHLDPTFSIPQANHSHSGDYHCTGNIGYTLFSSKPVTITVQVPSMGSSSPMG

T3: human FcγRIIa(R) (human, UniProt P12318 36-217)
T3 construct: also called FcgRIIaR; FcγRIIa type R
T3 chain: T2 sequence with H133R

T4: human FcγRIIa(H) (human, UniProt P12318 36-217)
T4 construct: also called FcgRIIaH; hFcgRIIa(H)
T4 sequence: T2 sequence

T5: human FcγRIIa(R) (human, UniProt P12318 36-217)
T5 construct: also called FcgRIIaR; hFcgRIIa(R)
T5 chain: T2 sequence with H133R

T6: human FcγRIIb (human, UniProt P31994 43-217, limits assumed)
T6 construct: also called FcgRIIb; hFcgRIIb
T6 sequence: T1 sequence

B1: GpH7-B3 variant V266A/GpL16-k0 (antibody, human IgG1)
heavy: not shown
light: DIVMTQSPLSLPVTPGEPASISCQASESLVHSNRNTYLHWYLQKPGQSPQLLIYKVSNRFSGVPDRFSGSGSGTDFTLKISRVEAEDVGVYYCSQNTHVPPTFGQGTKVEIE
notes: copies: 2 + 2
B2: GpH7-B3 variant G237K/GpL16-k0 (antibody, human IgG1)
heavy: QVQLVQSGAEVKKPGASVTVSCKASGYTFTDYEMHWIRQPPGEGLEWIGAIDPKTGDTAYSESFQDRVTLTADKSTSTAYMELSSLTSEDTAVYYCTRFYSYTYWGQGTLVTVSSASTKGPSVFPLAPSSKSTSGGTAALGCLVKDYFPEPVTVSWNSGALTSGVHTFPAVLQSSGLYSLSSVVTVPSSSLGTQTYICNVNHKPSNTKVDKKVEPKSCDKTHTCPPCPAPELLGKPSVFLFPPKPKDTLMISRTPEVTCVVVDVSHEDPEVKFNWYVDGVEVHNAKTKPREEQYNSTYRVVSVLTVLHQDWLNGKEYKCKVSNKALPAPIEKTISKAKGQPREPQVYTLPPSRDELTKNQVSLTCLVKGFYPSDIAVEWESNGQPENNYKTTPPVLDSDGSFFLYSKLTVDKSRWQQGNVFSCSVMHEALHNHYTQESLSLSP
light: B1 light
notes: copies: 2 + 2
B3: GpH7-B3 variant V266Q/GpL16-k0 (antibody, human IgG1)
heavy: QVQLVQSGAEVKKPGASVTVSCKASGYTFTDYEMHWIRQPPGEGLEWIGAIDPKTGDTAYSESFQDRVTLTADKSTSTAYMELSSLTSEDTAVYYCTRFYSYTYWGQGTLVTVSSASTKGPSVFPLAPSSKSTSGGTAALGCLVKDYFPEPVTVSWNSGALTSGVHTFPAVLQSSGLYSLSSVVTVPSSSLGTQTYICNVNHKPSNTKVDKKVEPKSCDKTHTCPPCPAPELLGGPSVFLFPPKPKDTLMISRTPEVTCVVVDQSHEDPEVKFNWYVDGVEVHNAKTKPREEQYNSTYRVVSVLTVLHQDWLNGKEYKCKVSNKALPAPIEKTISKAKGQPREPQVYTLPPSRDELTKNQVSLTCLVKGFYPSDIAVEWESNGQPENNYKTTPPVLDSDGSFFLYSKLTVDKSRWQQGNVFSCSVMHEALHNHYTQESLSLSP
light: B1 light
notes: copies: 2 + 2
B4: GpH7-B3 variant V266R/GpL16-k0 (antibody, human IgG1)
heavy: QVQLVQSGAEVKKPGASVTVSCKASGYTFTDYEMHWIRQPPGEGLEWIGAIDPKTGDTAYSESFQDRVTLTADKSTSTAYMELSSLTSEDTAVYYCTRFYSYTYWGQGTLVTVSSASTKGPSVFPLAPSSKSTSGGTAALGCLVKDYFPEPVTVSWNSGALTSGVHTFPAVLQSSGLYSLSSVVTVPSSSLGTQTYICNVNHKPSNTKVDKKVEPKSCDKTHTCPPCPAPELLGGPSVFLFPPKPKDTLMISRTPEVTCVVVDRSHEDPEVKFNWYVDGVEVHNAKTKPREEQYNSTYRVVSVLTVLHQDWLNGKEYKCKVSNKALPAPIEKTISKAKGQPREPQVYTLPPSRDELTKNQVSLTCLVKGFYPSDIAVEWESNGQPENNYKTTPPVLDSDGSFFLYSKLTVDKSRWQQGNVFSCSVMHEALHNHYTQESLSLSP
light: B1 light
notes: copies: 2 + 2
B5: GpH7-B3 variant V266D/GpL16-k0 (antibody, human IgG1)
heavy: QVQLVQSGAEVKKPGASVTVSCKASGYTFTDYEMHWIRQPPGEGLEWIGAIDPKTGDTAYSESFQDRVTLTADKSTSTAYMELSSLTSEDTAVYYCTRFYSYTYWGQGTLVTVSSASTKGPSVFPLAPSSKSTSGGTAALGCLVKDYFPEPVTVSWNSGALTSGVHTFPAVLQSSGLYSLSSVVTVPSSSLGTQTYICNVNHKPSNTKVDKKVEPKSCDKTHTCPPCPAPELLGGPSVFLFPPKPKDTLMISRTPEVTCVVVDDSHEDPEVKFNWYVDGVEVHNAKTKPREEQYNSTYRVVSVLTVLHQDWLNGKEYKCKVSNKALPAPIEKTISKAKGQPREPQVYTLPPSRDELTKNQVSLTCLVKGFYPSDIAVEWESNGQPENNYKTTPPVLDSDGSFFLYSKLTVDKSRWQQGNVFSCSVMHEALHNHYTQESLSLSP
light: B1 light
notes: copies: 2 + 2
B6: GpH7-B3 variant V2668/GpL16-k0 (antibody, human IgG1)
heavy: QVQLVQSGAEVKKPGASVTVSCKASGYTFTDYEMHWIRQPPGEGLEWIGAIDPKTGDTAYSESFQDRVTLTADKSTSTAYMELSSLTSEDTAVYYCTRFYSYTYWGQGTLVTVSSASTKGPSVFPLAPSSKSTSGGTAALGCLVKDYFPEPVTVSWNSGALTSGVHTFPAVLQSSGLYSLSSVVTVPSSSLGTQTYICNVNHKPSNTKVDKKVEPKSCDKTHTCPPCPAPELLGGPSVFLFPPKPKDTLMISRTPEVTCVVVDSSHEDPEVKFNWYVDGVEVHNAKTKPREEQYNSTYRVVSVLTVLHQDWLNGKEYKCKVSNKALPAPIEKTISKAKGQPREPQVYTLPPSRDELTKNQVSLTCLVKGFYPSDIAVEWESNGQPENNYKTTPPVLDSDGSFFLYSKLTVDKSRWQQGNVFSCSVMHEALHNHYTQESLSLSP
light: B1 light
notes: copies: 2 + 2
B7: GpH7-B3 variant V266T/GpL16-k0 (antibody, human IgG1)
heavy: not shown
light: B1 light
notes: copies: 2 + 2
B8: GpH7-B3 variant V266N/GpL16-k0 (antibody, human IgG1)
heavy: not shown
light: B1 light
notes: copies: 2 + 2
B9: GpH7-B3 variant V266H/GpL16-k0 (antibody, human IgG1)
heavy: not shown
light: B1 light
notes: copies: 2 + 2
B10: GpH7-B3 variant V266K/GpL16-k0 (antibody, human IgG1)
heavy: not shown
light: B1 light
notes: copies: 2 + 2
B11: GpH7-B3 variant V266P/GpL16-k0 (antibody, human IgG1)
heavy: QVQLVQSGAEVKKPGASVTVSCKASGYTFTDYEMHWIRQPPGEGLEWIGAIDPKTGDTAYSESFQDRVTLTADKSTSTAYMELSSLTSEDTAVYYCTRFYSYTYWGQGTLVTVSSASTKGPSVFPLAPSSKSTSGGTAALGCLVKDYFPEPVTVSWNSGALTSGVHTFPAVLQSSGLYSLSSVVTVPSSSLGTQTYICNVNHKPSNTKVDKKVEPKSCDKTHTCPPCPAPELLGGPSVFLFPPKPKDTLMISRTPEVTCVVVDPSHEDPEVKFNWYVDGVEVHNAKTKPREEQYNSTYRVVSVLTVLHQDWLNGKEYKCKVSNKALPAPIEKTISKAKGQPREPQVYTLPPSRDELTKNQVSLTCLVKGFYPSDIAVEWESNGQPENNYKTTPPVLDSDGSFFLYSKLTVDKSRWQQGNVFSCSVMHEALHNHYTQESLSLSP
light: B1 light
notes: copies: 2 + 2
B12: GpH7-B3 variant V266E/GpL16-k0 (antibody, human IgG1)
heavy: not shown
light: B1 light
notes: copies: 2 + 2
B13: GpH7-B3 variant V266G/GpL16-k0 (antibody, human IgG1)
heavy: not shown
light: B1 light
notes: copies: 2 + 2
B14: GpH7-B3 variant V266Y/GpL16-k0 (antibody, human IgG1)
heavy: not shown
light: B1 light
notes: copies: 2 + 2
B15: GpH7-B3 variant V266W/GpL16-k0 (antibody, human IgG1)
heavy: not shown
light: B1 light
notes: copies: 2 + 2
B16: GpH7-B3 P329K/GpL16-k0 (antibody, human IgG1)
heavy: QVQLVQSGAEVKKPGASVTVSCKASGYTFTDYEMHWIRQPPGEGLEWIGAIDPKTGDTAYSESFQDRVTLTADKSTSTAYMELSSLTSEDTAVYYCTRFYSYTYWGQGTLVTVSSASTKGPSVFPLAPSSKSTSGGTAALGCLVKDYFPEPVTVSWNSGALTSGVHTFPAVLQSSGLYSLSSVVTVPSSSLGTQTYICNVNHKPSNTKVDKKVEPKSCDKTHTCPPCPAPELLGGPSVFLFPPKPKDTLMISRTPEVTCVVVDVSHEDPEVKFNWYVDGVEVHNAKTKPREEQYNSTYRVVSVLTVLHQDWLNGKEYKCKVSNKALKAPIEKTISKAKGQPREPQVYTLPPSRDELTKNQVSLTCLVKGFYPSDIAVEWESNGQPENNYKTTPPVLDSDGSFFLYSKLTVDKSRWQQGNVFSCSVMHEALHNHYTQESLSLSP
light: B1 light
notes: B3 variant; copies: 2 + 2
B17: GpH7-B3 A327K/GpL16-k0 (antibody, human IgG1)
heavy: not shown
light: B1 light
notes: B3 variant; copies: 2 + 2
B18: GpH7-B3 A327I/GpL16-k0 (antibody, human IgG1)
heavy: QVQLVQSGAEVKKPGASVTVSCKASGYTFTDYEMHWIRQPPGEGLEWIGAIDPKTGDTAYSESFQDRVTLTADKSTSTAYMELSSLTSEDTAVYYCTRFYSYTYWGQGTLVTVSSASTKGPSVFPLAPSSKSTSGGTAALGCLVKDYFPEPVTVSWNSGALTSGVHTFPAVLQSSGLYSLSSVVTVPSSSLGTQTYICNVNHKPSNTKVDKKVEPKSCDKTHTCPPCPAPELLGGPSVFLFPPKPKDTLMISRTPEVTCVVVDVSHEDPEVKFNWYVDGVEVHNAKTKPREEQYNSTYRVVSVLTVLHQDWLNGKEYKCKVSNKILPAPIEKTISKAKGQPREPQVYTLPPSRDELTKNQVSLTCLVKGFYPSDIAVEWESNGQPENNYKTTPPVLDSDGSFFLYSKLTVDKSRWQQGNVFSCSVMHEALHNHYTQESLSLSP
light: B1 light
notes: B3 variant; copies: 2 + 2
B19: GpH7-B3 A327H/GpL16-k0 (antibody, human IgG1)
heavy: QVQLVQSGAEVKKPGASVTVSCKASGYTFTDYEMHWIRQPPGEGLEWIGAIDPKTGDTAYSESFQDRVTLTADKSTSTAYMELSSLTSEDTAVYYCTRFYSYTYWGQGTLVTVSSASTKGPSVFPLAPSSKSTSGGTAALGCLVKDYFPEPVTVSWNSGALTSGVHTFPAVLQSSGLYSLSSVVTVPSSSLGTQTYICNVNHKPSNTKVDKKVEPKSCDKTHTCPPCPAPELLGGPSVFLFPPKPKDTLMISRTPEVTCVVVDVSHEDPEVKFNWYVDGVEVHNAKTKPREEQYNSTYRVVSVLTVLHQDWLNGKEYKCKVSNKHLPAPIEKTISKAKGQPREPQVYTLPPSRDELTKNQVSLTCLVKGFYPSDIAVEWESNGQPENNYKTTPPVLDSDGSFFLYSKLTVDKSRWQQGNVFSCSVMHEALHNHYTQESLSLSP
light: B1 light
notes: B3 variant; copies: 2 + 2
B20: GpH7-B3 N325I/GpL16-k0 (antibody, human IgG1)
heavy: not shown
light: B1 light
notes: B3 variant; copies: 2 + 2
B21: GpH7-B3 A327F/GpL16-k0 (antibody, human IgG1)
heavy: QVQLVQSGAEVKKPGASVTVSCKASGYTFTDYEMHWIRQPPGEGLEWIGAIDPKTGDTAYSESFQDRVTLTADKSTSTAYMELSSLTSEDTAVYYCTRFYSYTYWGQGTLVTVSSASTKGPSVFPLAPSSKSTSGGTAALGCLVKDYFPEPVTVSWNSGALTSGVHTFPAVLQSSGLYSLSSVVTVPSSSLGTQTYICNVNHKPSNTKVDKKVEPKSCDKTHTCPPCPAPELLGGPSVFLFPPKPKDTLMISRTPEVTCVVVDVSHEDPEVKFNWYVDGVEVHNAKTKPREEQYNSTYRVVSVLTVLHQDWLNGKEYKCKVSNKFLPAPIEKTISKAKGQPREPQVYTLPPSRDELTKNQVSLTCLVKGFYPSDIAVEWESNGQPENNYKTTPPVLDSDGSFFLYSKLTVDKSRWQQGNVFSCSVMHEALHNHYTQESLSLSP
light: B1 light
notes: B3 variant; copies: 2 + 2
B22: GpH7-B3 A327L/GpL16-k0 (antibody, human IgG1)
heavy: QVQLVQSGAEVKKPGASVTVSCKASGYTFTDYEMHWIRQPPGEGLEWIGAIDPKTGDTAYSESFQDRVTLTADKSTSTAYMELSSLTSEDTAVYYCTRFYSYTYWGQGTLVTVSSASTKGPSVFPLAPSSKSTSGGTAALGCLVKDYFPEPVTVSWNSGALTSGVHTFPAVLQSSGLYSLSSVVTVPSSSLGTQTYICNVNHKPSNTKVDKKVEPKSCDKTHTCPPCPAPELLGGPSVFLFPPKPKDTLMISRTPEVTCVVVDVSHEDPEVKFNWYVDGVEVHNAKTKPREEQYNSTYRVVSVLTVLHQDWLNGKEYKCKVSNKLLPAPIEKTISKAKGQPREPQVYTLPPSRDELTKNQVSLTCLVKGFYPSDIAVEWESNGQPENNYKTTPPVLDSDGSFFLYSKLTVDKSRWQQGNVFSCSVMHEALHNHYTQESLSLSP
light: B1 light
notes: B3 variant; copies: 2 + 2
B23: GpH7-B3 S298W/GpL16-k0 (antibody, human IgG1)
heavy: not shown
light: B1 light
notes: B3 variant; copies: 2 + 2

Biological target: T1, human FcγRIIb
Experiment: SPR (Biacore);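 note: antibody variants captured on sensor chip, Fcγ receptor flowed over at 25 °C, bound receptor normalized to amount of captured antibody, expressed relative to reference antibody set as 100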

| relative binding activity | Binder |
| --- | --- |
| 55 % of GpH7-B3/GpL16-k0 | B1 |
| -1 % of GpH7-B3/GpL16-k0 | B2 |
| 34 % of GpH7-B3/GpL16-k0 | B3 |
| -2 % of GpH7-B3/GpL16-k0 | B4 |
| 2 % of GpH7-B3/GpL16-k0 | B5 |
| 18 % of GpH7-B3/GpL16-k0 | B6 |
| 52 % of GpH7-B3/GpL16-k0 | B7 |
| 40 % of GpH7-B3/GpL16-k0 | B8 |
| 14 % of GpH7-B3/GpL16-k0 | B9 |
| -1 % of GpH7-B3/GpL16-k0 | B10 |
| -3 % of GpH7-B3/GpL16-k0 | B11 |
| 0 % of GpH7-B3/GpL16-k0 | B12 |
| 22 % of GpH7-B3/GpL16-k0 | B13 |
| 15 % of GpH7-B3/GpL16-k0 | B14 |
| 26 % of GpH7-B3/GpL16-k0 | B15 |

Biological target: T2, human FcγRIIa(H)
Experiment: SPR (Biacore);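 note: antibody variants captured on sensor chip, Fcγ receptor flowed over at 25 °C, bound receptor normalized to amount of captured antibody, expressed relative to reference antibody set as 100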

| relative binding activity | Binder |
| --- | --- |
| 41 % of GpH7-B3/GpL16-k0 | B1 |
| 0 % of GpH7-B3/GpL16-k0 | B2 |
| 11 % of GpH7-B3/GpL16-k0 | B3 |
| -1 % of GpH7-B3/GpL16-k0 | B4 |
| 2 % of GpH7-B3/GpL16-k0 | B5 |
| 5 % of GpH7-B3/GpL16-k0 | B6 |
| 18 % of GpH7-B3/GpL16-k0 | B7 |
| 32 % of GpH7-B3/GpL16-k0 | B8 |
| 2 % of GpH7-B3/GpL16-k0 | B9 |
| -1 % of GpH7-B3/GpL16-k0 | B10 |
| -1 % of GpH7-B3/GpL16-k0 | B11 |
| 0 % of GpH7-B3/GpL16-k0 | B12 |
| 10 % of GpH7-B3/GpL16-k0 | B13 |
| 2 % of GpH7-B3/GpL16-k0 | B14 |
| 0 % of GpH7-B3/GpL16-k0 | B15 |

Biological target: T7, human FcγRIIIa(F) (human, UniProt P08637 17-208, limits assumed)
T7 construct: also called FcgRIIIaF; allotype F158
Experiment: SPR (Biacore);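 note: antibody variants captured on sensor chip, Fcγ receptor flowed over at 25 °C, bound receptor normalized to amount of captured antibody, expressed relative to reference antibody set as 100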

| relative binding activity | Binder |
| --- | --- |
| 26 % of GpH7-B3/GpL16-k0 | B1 |
| -1 % of GpH7-B3/GpL16-k0 | B2 |
| 3 % of GpH7-B3/GpL16-k0 | B3 |
| -1 % of GpH7-B3/GpL16-k0 | B4 |
| 1 % of GpH7-B3/GpL16-k0 | B5 |
| 3 % of GpH7-B3/GpL16-k0 | B6 |
| 12 % of GpH7-B3/GpL16-k0 | B7 |
| 5 % of GpH7-B3/GpL16-k0 | B8 |
| 0 % of GpH7-B3/GpL16-k0 | B9 |
| -1 % of GpH7-B3/GpL16-k0 | B10 |
| -1 % of GpH7-B3/GpL16-k0 | B11 |
| -1 % of GpH7-B3/GpL16-k0 | B12 |
| 3 % of GpH7-B3/GpL16-k0 | B13 |
| 0 % of GpH7-B3/GpL16-k0 | B14 |
| -1 % of GpH7-B3/GpL16-k0 | B15 |

Biological target: T3, human FcγRIIa(R)
Experiment: SPR (Biacore);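 note: antibody variants captured on sensor chip, Fcγ receptor flowed over at 25 °C, bound receptor normalized to amount of captured antibody, expressed relative to reference antibody set as 100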

| relative binding activity | Binder |
| --- | --- |
| 68 % of GpH7-B3/GpL16-k0 | B1 |
| 0 % of GpH7-B3/GpL16-k0 | B2 |
| 47 % of GpH7-B3/GpL16-k0 | B3 |
| -6 % of GpH7-B3/GpL16-k0 | B4 |
| 3 % of GpH7-B3/GpL16-k0 | B5 |
| 26 % of GpH7-B3/GpL16-k0 | B6 |
| 66 % of GpH7-B3/GpL16-k0 | B7 |
| 58 % of GpH7-B3/GpL16-k0 | B8 |
| 22 % of GpH7-B3/GpL16-k0 | B9 |
| 0 % of GpH7-B3/GpL16-k0 | B10 |
| -5 % of GpH7-B3/GpL16-k0 | B11 |
| -3 % of GpH7-B3/GpL16-k0 | B12 |
| 27 % of GpH7-B3/GpL16-k0 | B13 |
| 18 % of GpH7-B3/GpL16-k0 | B14 |
| 37 % of GpH7-B3/GpL16-k0 | B15 |

Biological target: T8, human FcγRIa (human, UniProt P12314 16-292, limits assumed)
T8 construct: also called FcgRIa; FcγRI (CD64)
Experiment: SPR (Biacore)

| relative binding activity | Binder |
| --- | --- |
| 95 % of GpH7-B3/GpL16-k0 | B1 |
| 2 % of GpH7-B3/GpL16-k0 | B2 |
| 88 % of GpH7-B3/GpL16-k0 | B3 |
| 5 % of GpH7-B3/GpL16-k0 | B4 |
| 67 % of GpH7-B3/GpL16-k0 | B5 |
| 79 % of GpH7-B3/GpL16-k0 | B6 |
| 89 % of GpH7-B3/GpL16-k0 | B7 |
| 84 % of GpH7-B3/GpL16-k0 | B8 |
| 62 % of GpH7-B3/GpL16-k0 | B9 |
| 15 % of GpH7-B3/GpL16-k0 | B10 |
| 1 % of GpH7-B3/GpL16-k0 | B11 |
| 69 % of GpH7-B3/GpL16-k0 | B12 |
| 86 % of GpH7-B3/GpL16-k0 | B13 |
| 75 % of GpH7-B3/GpL16-k0 | B14 |
| 78 % of GpH7-B3/GpL16-k0 | B15 |

Biological target: T4, human FcγRIIa(H)
Experiment: SPR, captured antibody;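 note: antibody captured on a sensor chip, Fcγ receptor flowed over at 25 °C, receptor binding normalized to the captured antibody amount and expressed relative to the reference antibody ×100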

| relative binding activity | Binder |
| --- | --- |
| -1 % of GpH7-B3/GpL16-k0 | B16 |
| 0 % of GpH7-B3/GpL16-k0 | B17 |
| 12 % of GpH7-B3/GpL16-k0 | B18 |
| 23 % of GpH7-B3/GpL16-k0 | B19 |
| 8 % of GpH7-B3/GpL16-k0 | B20 |
| 37 % of GpH7-B3/GpL16-k0 | B21 |
| 16 % of GpH7-B3/GpL16-k0 | B22 |
| 17 % of GpH7-B3/GpL16-k0 | B23 |

Biological target: T5, human FcγRIIa(R)
Experiment: SPR, captured antibody;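 note: antibody captured on a sensor chip, Fcγ receptor flowed over at 25 °C, receptor binding normalized to the captured antibody amount and expressed relative to the reference antibody ×100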

| relative binding activity | Binder |
| --- | --- |
| -2 % of GpH7-B3/GpL16-k0 | B16 |
| -8 % of GpH7-B3/GpL16-k0 | B17 |
| 37 % of GpH7-B3/GpL16-k0 | B18 |
| 32 % of GpH7-B3/GpL16-k0 | B19 |
| 76 % of GpH7-B3/GpL16-k0 | B20 |
| 17 % of GpH7-B3/GpL16-k0 | B21 |
| 31 % of GpH7-B3/GpL16-k0 | B22 |
| 19 % of GpH7-B3/GpL16-k0 | B23 |

Biological target: T6, human FcγRIIb
Experiment: SPR, captured antibody;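 note: antibody captured on a sensor chip, Fcγ receptor flowed over at 25 °C, receptor binding normalized to the captured antibody amount and expressed relative to the reference antibody ×100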

| relative binding activity | Binder |
| --- | --- |
| -2 % of GpH7-B3/GpL16-k0 | B16 |
| 0 % of GpH7-B3/GpL16-k0 | B17 |
| 46 % of GpH7-B3/GpL16-k0 | B18 |
| 35 % of GpH7-B3/GpL16-k0 | B19 |
| 22 % of GpH7-B3/GpL16-k0 | B21 |
| 34 % of GpH7-B3/GpL16-k0 | B22 |

Biological target: T9, human FcγRIa (human, UniProt P12314 16-292, limits assumed)
T9 construct: also called FcgRIa; hFcgRIa
Experiment: SPR, captured antibody;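 note: antibody captured on a sensor chip, Fcγ receptor flowed over at 25 °C, receptor binding normalized to the captured antibody amount and expressed relative to the reference antibody ×100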

| relative binding activity | Binder |
| --- | --- |
| 6 % of GpH7-B3/GpL16-k0 | B16 |
| 57 % of GpH7-B3/GpL16-k0 | B17 |
| 98 % of GpH7-B3/GpL16-k0 | B18 |
| 93 % of GpH7-B3/GpL16-k0 | B19 |
| 94 % of GpH7-B3/GpL16-k0 | B20 |
| 95 % of GpH7-B3/GpL16-k0 | B21 |
| 98 % of GpH7-B3/GpL16-k0 | B22 |
| 69 % of GpH7-B3/GpL16-k0 | B23 |
